# From patent US20220348635A1, “COMPOSITIONS AND METHODS FOR NEUROLOGICAL DISEASES” (Coda Biotherapeutics, Inc., priority 2019, published 2022)
# Positions count from the first letter of the chain named. Numbers in names are those of the source.
# B1: SEQ ID NO: 33: parental CHRNA7/GLRA1 chimera: α7-nAChR ligand binding domain with GlyRα1 Cys-loop, fused to GlyRα1 ion pore domain (protein)
# chain: MRCSPGGVWLALAASLLHVSLQGEFQRKLYKELVKNYNPLERPVANDSQPLTVYFSLSLLQIMDVDEKNQVLTTNIWLQMSWTDHYLQWNVSEYPGVKTVRFPDGQIWKPDILLYNSADERFDATFHTNVLVNSSGHCQYLPPGIFKSSCPMDLKNFPMDVQTCKLKFGSWSYGGWSLDLQMQEADISGYIPNGEWDLVGIPGKRSERFYECCKEPYPDVTFTVTMRRRMGYYLIQMYIPSLLIVILSWISFWINMDAAPARVGLGITTVLTMTTQSSGSRASLPKVSYVKAIDIWMAVCLLFVFSALLEYAAVNFVSRQHKELLRFRRKRRHHKSPMLNLFQEDEAGEGRFNFSAYGMGPACLQAKDGISVKGANNSNTTNPPPAPSKSPEEMRKLFIQRAKKIDKISRIGFPMAFLIFNMFYWIIYKIVRREDVHNQ
# modifications: synthetic sequence of chimeric LGIC
# B2: L131D, S172D in SEQ ID NO: 33: engineered chimeric α7-nAChR/GlyRα1 LGIC receptor: SEQ ID NO: 33 with substitutions L131D and S172D (protein)
# chain: B1 chain with L131D, S172D
# modifications: synthetic sequence of chimeric LGIC
# Columns and labels:
# [1] = Sensitivity of parental chimera versus wild type α7-nAChR, acetylcholine
# Excerpt: (§1) To generate LGICs that conduct anion current following exposure to non-native small molecule agonists of the human α7-nAChR, chimeric ligand gated ion channel (LGIC) receptors comprising the ligand binding domain derived from the human α7 nicotinic acetylcholine receptor (α7-nAChR) and the chloride-conducting ion pore domain derived from the human GlyR1α were genetically engineered.
# [2] = Sensitivity of parental chimera versus wild type α7-nAChR, ABT-126
# Excerpt: as §1
# [3] = Sensitivity of parental chimera versus wild type α7-nAChR, TC-6987
# Excerpt: as §1
# [4] = Sensitivity of parental chimera versus wild type α7-nAChR, nicotine
# Excerpt: as §1
# [5] = Sensitivity of parental chimera versus wild type α7-nAChR, AZD-0328
# Excerpt: as §1
# [6] = Sensitivity of parental chimera versus wild type α7-nAChR, Facinicline/RG3487
# Excerpt: as §1
# [7] = YFP quench plate reader assay, response to ABT-126; type: cell-based; conditions: LX293T YFP reporter cells
# Summary of the method: (§2)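 Anion-flux assay: channel opening admits iodide, quenching a co-expressed YFP reporter in LX293T cells transfected with engineered receptor mutants. Ligands were applied at several doses from 2× solutions in NaI-substituted ECS.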
# [8] = YFP quench plate reader assay, response to acetylcholine; type: cell-based; conditions: LX293T YFP reporter cells
# Summary of the method: as §2
# [9] = YFP quench plate reader assay, response to APN-1125; type: cell-based; conditions: LX293T YFP reporter cells
# Summary of the method: as §2
# [10] = YFP quench plate reader assay, response to AZD-0328; type: cell-based; conditions: LX293T YFP reporter cells
# Summary of the method: as §2
# [11] = YFP quench plate reader assay, response to TC-5619; type: cell-based; conditions: LX293T YFP reporter cells
# Summary of the method: as §2
# [12] = YFP quench plate reader assay, response to RG3487; type: cell-based; conditions: LX293T YFP reporter cells
# Summary of the method: as §2
# [13] = YFP quench plate reader assay, response to TC-6987; type: cell-based; conditions: LX293T YFP reporter cells
# Summary of the method: as §2
# [14] = High throughput electrophysiology in HEK293T cells, AZD-0328; type: cell-based
# Experimental: To confirm the EC50s determined by plate reader as well as develop a better understanding of maximum current flow, the engineered receptors were subjected to high throughput electrophysiology system, as described below. For HEK293T studies, cDNAs encoding ion channels were cloned into pcDNA3.1 using standard recombination techniques. HEK293T cells from Clontech (Lenti-X™ 293T Cell Line) were cultured in DMEM supplemented with 10% FBS and 1% Pen/Strep to 40-50% confluence using standard cell culture protocols, transfected with ion channel plasmids at a concentration of 18 μg per 15 cm dish using Fugene 6, and grown for an additional 24 hours. Cells were then assayed on a electrophysiological system (IonFluxHT and/or Mercury, Fluxion Biosciences) in which dose-response relationships may be assessed through a microfluidics-based platform for establishing whole cell configurations. Ensemble plates were primed with extracellular buffer (140 mM NaCl, 5 mM KCl, 2 mM CaCl2), 1 mM MgCl2, 10 mM HEPES, and 10 mM glucose, pH 7.2 with NaOH, mOsm 310), intracellular buffer (145 mM CsCl, 2 mM CaCl2, 2 mM MgCl2, 10 mM HEPES, and 10 mM EGTA, pH 7.2 with CsOH, mOsm 305), as adapted from Lynagh and Lynch, and test compounds (stocks prepared fresh) diluted in extracellular buffer. Cells were then released from the plate with Accutase, centrifuged, resuspended in extracellular buffer, and loaded into Ensemble plates. Cells were then subjected to a standard protocol for priming, trapping, breaking, and establishing whole cell configuration, with cells held at −60 mV throughout the recording. After recording baseline, progressive doses of test compounds were applied using the IonFlux software to assess dose response relationships. Data were then analyzed off-line using custom Python scripts to convert data to .csv format, re-plot traces, and apply QC measurements to reject unstable recordings (i.e. thresholding based on access resistance and/or standard deviation in baseline, as well as artifact rejection). Peak currents were then calculated and population data were fit using a 4-parameter logistic equation as described by the Hill Equation. Currents were measured on an automated patch clamp system (Fluxion Biosciences) following 1 second addition of drug and the EC50 values calculated are tabulated below in Table 13.
# [15] = High throughput electrophysiology in HEK293T cells, RG-3487; type: cell-based
# Experimental: To confirm the EC50s determined by plate reader as well as develop a better understanding of maximum current flow, the engineered receptors were subjected to high throughput electrophysiology system, as described below. For HEK293T studies, cDNAs encoding ion channels were cloned into pcDNA3.1 using standard recombination techniques. HEK293T cells from Clontech (Lenti-X™ 293T Cell Line) were cultured in DMEM supplemented with 10% FBS and 1% Pen/Strep to 40-50% confluence using standard cell culture protocols, transfected with ion channel plasmids at a concentration of 18 μg per 15 cm dish using Fugene 6, and grown for an additional 24 hours. Cells were then assayed on a electrophysiological system (IonFluxHT and/or Mercury, Fluxion Biosciences) in which dose-response relationships may be assessed through a microfluidics-based platform for establishing whole cell configurations. […] Data were then analyzed off-line using custom Python scripts to convert data to .csv format, re-plot traces, and apply QC measurements to reject unstable recordings (i.e. thresholding based on access resistance and/or standard deviation in baseline, as well as artifact rejection). Peak currents were then calculated and population data were fit using a 4-parameter logistic equation as described by the Hill Equation. […]
molecule,measurement,setting,value
B1,sensitivity to acetylcholine compared to wild type α7-nAChR,[1],approximately as sensitive
same,sensitivity to ABT-126 compared to wild type α7-nAChR,[2],approximately as sensitive
same,sensitivity to TC-6987 compared to wild type α7-nAChR,[3],approximately as sensitive
same,type of agonist activity of TC-6987 on the receptor,[3]; similar to wild type,partial agonist activity
same,fold less sensitive to nicotine than wild type,[4],~2 fold
same,fold more sensitive to AZD-0328 than wild type,[5],approximately 3 fold
same,fold more sensitive to Facinicline/RG3487 than wild type,[6],~10 fold
B2,"percent quench of YFP fluorescence, 50 nM abt",[7]; 50 nM ABT-126,−3.19%
same,"percent quench of YFP fluorescence, 100 nM abt",[7]; 100 nM ABT-126,7.58%
same,"percent quench of YFP fluorescence, 300 nM abt",[7]; 300 nM ABT-126,−1.65%
same,"percent quench of YFP fluorescence, 1 uM abt",[7]; 1 uM ABT-126,31.29%
same,"percent quench of YFP fluorescence, 10 uM ach",[8]; 10 uM acetylcholine,−12.91%
same,"percent quench of YFP fluorescence, 100 uM ach",[8]; 100 uM acetylcholine,−20.88%
same,"percent quench of YFP fluorescence, 1 mM ach",[8]; 1 mM acetylcholine,79.85%
same,"percent quench of YFP fluorescence, 3 mM ach",[8]; 3 mM acetylcholine,79.98%
same,"percent quench of YFP fluorescence, 100 nM apn",[9]; 100 nM APN-1125,71.72%
same,"percent quench of YFP fluorescence, 1 uM apn",[9]; 1 uM APN-1125,77.26%
same,"percent quench of YFP fluorescence, 30 uM apn",[9]; 30 uM APN-1125,77.5%
same,"percent quench of YFP fluorescence, 100 nM azd",[10]; 100 nM AZD-0328,51.44%
same,"percent quench of YFP fluorescence, 300 nM azd",[10]; 300 nM AZD-0328,77.12%
same,"percent quench of YFP fluorescence, 30 uM azd",[10]; 30 uM AZD-0328,79.26%
same,"percent quench of YFP fluorescence, 1 nM brd",[11]; 1 nM TC-5619,−1.24%
same,"percent quench of YFP fluorescence, 3 nM brd",[11]; 3 nM TC-5619,0.25%
same,"percent quench of YFP fluorescence, 10 nM brd",[11]; 10 nM TC-5619,−2.57%
same,"percent quench of YFP fluorescence, 30 nM brd",[11]; 30 nM TC-5619,0.78%
same,"percent quench of YFP fluorescence, 100 nM brd",[11]; 100 nM TC-5619,4.51%
same,"percent quench of YFP fluorescence, 300 nM brd",[11]; 300 nM TC-5619,30.97%
same,"percent quench of YFP fluorescence, 1 uM brd",[11]; 1 uM TC-5619,44.41%
same,"percent quench of YFP fluorescence, 30 nM fac",[12]; 30 nM RG3487,24.15%
same,"percent quench of YFP fluorescence, 300 nM fac",[12]; 300 nM RG3487,80.17%
same,"percent quench of YFP fluorescence, 10 uM fac",[12]; 10 uM RG3487,81.34%
same,"percent quench of YFP fluorescence, 30 uM fac",[12]; 30 uM RG3487,79.9%
same,"percent quench of YFP fluorescence, 1 uM tc6",[13]; 1 uM TC-6987,−18.24%
same,"percent quench of YFP fluorescence, 10 uM tc6",[13]; 10 uM TC-6987,−23.06%
same,"percent quench of YFP fluorescence, 500 uM tc6",[13]; 500 uM TC-6987,−19.3%
same,fold increased potency towards AZD-0328 compared to wild type receptor,[14],at least 10 fold
same,fold increased potency to RG-3487 compared to wild type receptor,[15],at least 10 fold
